Experimental findings from patent US20050043228A1 are described below.

In assay [1] the target is protamine (from protamine sulfate). Kind of assay: share of Val^8-GLP-1 in particles (supernatant versus total); 2.0 mg Val^8-GLP-1 + 0.33 mg protamine, ratio 6.1.
Assay [2] has the same target. Kind of assay: share of Val^8-GLP-1 in particles (supernatant versus total); 2.0 mg Val^8-GLP-1 + 0.27 mg protamine, ratio 7.4.
Assay [3] shares this target. The assay is described as follows: share of Val^8-GLP-1 in particles (supernatant versus total); 2.0 mg Val^8-GLP-1 + 0.38 mg protamine, ratio 5.3.
For assay [4] the target is unchanged. The assay is described as follows: share of Val^8-GLP-1 in particles (supernatant versus total); 2.0 mg Val^8-GLP-1 + 0.49 mg protamine, ratio 4.1.
The target is the same in assay [5]. The assay is described as follows: share of Val^8-GLP-1 in particles (supernatant versus total); 2.0 mg Val^8-GLP-1 + 0.16 mg protamine, ratio 12.5.
Assay [6] has the same target. The assay is described as follows: share of Val^8-GLP-1 in particles (supernatant versus total); 2.0 mg Val^8-GLP-1 + 0.44 mg protamine, ratio 4.5.
The target is the same in assay [7]. Kind of assay: share of Val^8-GLP-1 in particles (supernatant versus total); 2.0 mg Val^8-GLP-1 + 0.22 mg protamine, ratio 9.1.
Assay [8] has the same target. The assay is described as follows: Val^8-GLP-1 in the supernatant versus total, after mixing with protamine, 25 C, 24 h.
For assay [9] the target is unchanged. The assay is described as follows: share of Val^8-GLP-1 in particles (supernatant versus total); 2.0 mg Val^8-GLP-1 + 0.55 mg protamine, ratio 3.6.
The next assay has as its target poly-L-arginine. Kind of assay: Val^8-GLP-1 in the supernatant versus total, after mixing with poly-L-arginine, 25 C, 24 h.

As to HVEGTFTSDVSSYLEGQAAKEFIAWLVKGRG [Val^8-GLP-1(7-37)OH], the Yield % in [1] came out at 94.5%; in assay [2] it was 84.3%; in assay [3], 98.3%; in assay [4], 99.7%; in assay [5], 54.6%; in assay [6], 99.5%. In addition, the Yield % in assay [7] came to 73.2%; in assay [9], 99.4%. Besides, the yield (share of Val^8-GLP-1 in the particles) is 90 to 95% in assay [8] and 90% with poly-L-arginine.
